B1: HDAC6 (parent)
chain: QYMNEGELRVLADTYDSVYLHPNS

Variants of: B1
Test: protein stability index of a GFP-peptide fusion (GPS, HEK-293T) (PSI 1-6); higher = more stable
Conditions: c terminus: a fixed tail appended
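Also: lentivirally expressed fusions sorted by FACS into six bins by GFP to DsRed ratio, PSI derived from sequencing read proportions per bin multiplied by bin number.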

Protein stability index of substitutions, site by site:
S17: V 2.09, T 2.37, C 2.46, Y 1.47, E 2.99, Q 2.5, K 1.78, F 2.53, L 2.02, M 1.95, H 2.07, N 2.08, R 2.18, D 2.56, P 3.32, I 2.32, G 2.05, W 2.57
T14: F 1.73, E 2.2, H 2.73, A 2.1, P 2.53, R 2.51, D 2.84, N 2.36, L 1.28, Y 2.92, C 2.54, S 2.04, V 1.5, K 1.76, Q 3.12, W 1.43
A12: K 1.98, P 3.17, S 2.58, R 2.31, L 2.58, M 3.21, H 2.31, T 2.54, Y 2.1, V 1.09, Q 2.04, W 1.02, G 1.68, I 2.73, N 1.92
D13: L 1.45, F 3.63, W 1.37, E 1.6, G 2.86, I 2.2, K 1.16, N 2.23, T 2.08, H 1.77, C 1.2, S 1.9, V 1.97, Q 1.57, R 1.27, P 1.94
Y19: K 1.71, T 3.2, R 1.59, E 3.03, G 3.72, N 2.62, C 2.13, F 2.11, D 3.32, A 2.49, M 1.9, P 2.32, S 2.14, I 1.79, Q 3, L 2.1, V 4.09, H 2.45, W 4.22
Y15: K 3.46, V 2.38, T 2.82, A 2.75, C 2.46, F 1.83, N 2.65, H 3.13, L 2.69, E 3.18, I 1.81, W 2.25, D 3.86, S 3.18, Q 2.95, R 3.05, M 2.79, G 2.6, P 1.9
V18: K 2.63, A 2.56, D 2.87, Q 3.02, E 3.18, F 2.23, P 1.92, L 1.95, I 1.51, W 2.1, R 2.63, C 2.17, T 1.77, M 2.25, G 2.6, S 2.88, H 2.68, Y 2.21, N 2.98
D16: S 3.08, C 4.03, V 2.42, E 2.42, P 2.56, W 4.07, T 1.8, F 3.19
P22: A 2.15
H21: E 2.33, C 3.56, R 1.76, M 1.47, S 1.55, F 3.64, I 2.25, N 2.21, K 1.92, L 1.71, Q 2.11, P 1.85, D 1.84, T 1.38, Y 2.18, G 1.64, A 1.43, W 1.84
L20: V 2.22, D 3.27, G 2.14, R 2.06, H 3, S 3.32, P 2.68, F 2, K 1.87, Y 2.38, A 2.54, E 2.26, Q 2.58, N 2.42, M 2.14, I 1.39, T 2.88, W 1.67

Reference: the supplement of paper PMC10567573
